The data set can be described thus: yeast display, Sf9 membrane polyspecificity reagent, FACS + sequencing; frameworks hold sequencing errors. In outline: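 A synthetic nanobody library was expressed on Saccharomyces cerevisiae BJ5465 by galactose induction for 36–48 hours. The library was stained for 1 hour at 4 °C with 10% biotinylated, detergent-solubilized Sf9 membrane reagent and enriched with streptavidin microbeads before FACS. Low and high (top ~1%) gates were set on anti-HA fluorescence for expression and streptavidin fluorescence for reagent binding, and each polyreactivity label reflects the gate of origin.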
With “QVQLVESGGGLVQAGGSLRLSCAASGSTFHRNTLGWYRQAPGKERELVAGISLRGVRTYYADSVKGRFTISRDNAKNSVYLQMNSLKPEDTAVYYCAALYYYGYDYWGQGTQVTVSS”, the “polyreactivity (PSR sort gate)” value was “high polyreactivity”. Under “QVQLVESGGGLVQAGGSLRLSCAASGSTFHRNTMGWYRQAPAKERALVAGISLRGVSTYYADSVKGRFTISRDNAKNTVYLQMNSLKPEDTAVYYCAAGGPYTRNFKLGYWGQGTQVTVSS” stands “high polyreactivity”; under “QVQLVESGGGLVQAGGSLRLSCAASGSTFHRYAMGWYRQAPGKERELVAAISVRTGSTYYADSVKGRFTISRDNAKNTVYLQMNSLKPEDTAVYSCAVGKQINGKIYRYDYWGQGTQVTVSS”, “high polyreactivity”. Under “QVQLVESGGGLVQAGGSLRLSCAASGSTFHRYAMGWYRQAPGKERELVARINGSGGSTYYADSVKGRFTISRDNSKNTVYLQMNSLIPEDTAVYYCAADGLYYTYGYDYWGQGTQVTVSS” stands “low polyreactivity”; under “QVQLVESGGGLVQAGGSLRLSCAASGSTFHRYVMGWYRQAPGKERELVAVINSTGGSTYYADSVKGRFTISRDNAKNTVYLQMNSLKPEDTAVYYCARVTRRGPGYTTLYSRYDYWGQGTQVTVSS”, “low polyreactivity”.

Consider “QVQLVESGGGLVQAGGSLRLSCAASGSTFHSYVMGWYRPAPGKERELVAAITSRGGSTNYADSFKGRFTISRDNAKNTVYLQLNSLKPEDTAVYYCAADVYLGWSYFRYDYWGQGTQVTVSS”, for which the “polyreactivity (PSR sort gate)” value is recorded as “low polyreactivity”. With “QVQLVESGGGLVQAGGSLRLSCAASGSTFHSYVMGWYRQAPGKERELVAAITSRGGSTNYADSVKGRFTISRDNAKNTVYLQMNSLKPEDTAVYYCAADGYWGWSYFRYDYWGQGTQVTVSS”, the “polyreactivity (PSR sort gate)” value is given as “low polyreactivity”. Turning to “QVQLVESGGGLVQAGGSLRLSCAASGSTFHTYAMGWYRQAPGKERELVAGITGSGDSTFYADSVKGRFTISRDNAKNTVYLQMNSLKPEDTAVYYCAVESLRDVFEYDYWGQGTQVTVSS”, the “polyreactivity (PSR sort gate)” value was “low polyreactivity”. Under “QVQLVESGGGLVQAGGSLRLSCAASGSTFHTYTMGWYRQAPGKERELVAGISRSGGSTYYADSVKGRFTISRDNAKNTVYLQMNSLKPEDTAVYYCNALSSKTDTYDYWGQGTQVTVSS” stands “high polyreactivity”; under “QVQLVESGGGLVQAGGSLRLSCAASGSTFHWYDMGWYRPAPGKERELVAGINSSGDGTYYADSVKGRFTISRDNAKNTVYLQMNSLKPEDTAVYYCAAEYYTYWGYEDDYWGQGTQVTVSS”, “low polyreactivity”; under “QVQLVESGGGLVQAGGSLRLSCAASGSTFHYYAMGWYRQAPGKERELVATITRRGDSTYYADSVKGRFTISRDKAKNTVYLQMNSLKPEDTAVYYCATRYWRSGYDWPYGYWGQGTQVTVSS”, “high polyreactivity”. Under “QVQLVESGGGLVQAGGSLRLSCAASGSTFIANDMGWYRQAPGKERELVAAISWSGGSTYADSVKGRFTISRDNAKNTVYLQMNSLKPEDTAVYYCAADWQVVWDYNYWGQGTQVTVSS” stands “low polyreactivity”. Under “QVQLVESGGGLVQAGGSLRLSCAASGSTFIAYAMGWYRQAPGKERELVAAITKSGGRTYYADSVKGRFTISRDNAKNTVYLQMNSLKPEDTAVYYCAKLVPVYSHPYAYDYWGQGTQVTVSS” stands “high polyreactivity”; under “QVQLVESGGGLVQAGGSLRLSCAASGSTFIDYAMGWYRQAPGKDRELVAAITWSGSSTYYADSVKGRFTISRDNAKNTVDLQMNSLKPEDTAVYYCAARYWYQSYHTYGYYSWGQGTQVTVSS”, “low polyreactivity”. For the sequence “QVQLVESGGGLVQAGGSLRLSCAASGSTFIDYAMGWYRQAPGKERELVAAIDQGGGRTYYADSVKGRFTISRDNAKNTVYLQMNSLKPEDTAVYYCAATSRVVGEGGYEYWGQGTQVTVSS”, the “polyreactivity (PSR sort gate)” value was “low polyreactivity”. Turning to “QVQLVESGGGLVQAGGSLRLSCAASGSTFIFNTMGWYRQAPGKERELVATITGSGGSTYYADSVKGRFTISRDNAKNTVYLQMNSLKPEDTAVYYCAAVGDQNEYDYWGQGTQVTVSS”, the “polyreactivity (PSR sort gate)” value was “low polyreactivity”. Under “QVQLVESGGGLVQAGGSLRLSCAASGSTFIFNTMGWYRQAPGNERELVAAIRLSGGSTYYADSVKGRFTLSRDNAKYTVYLQMNSLKPEDTAVYYCARRLATRGHTYDYWGQGTQVTVSS” stands “low polyreactivity”; under “QVQLVESGGGLVQAGGSLRLSCAASGSTFIFYAMGWYRQAPGKERELVAAISWSGGSTYYADSVKGRFTISRDNAKYTVYLQMNSLKPEDTAVYYCITLHRYSSERYDYWGQGTQVTVSS”, “high polyreactivity”. Under “QVQLVESGGGLVQAGGSLRLSCAASGSTFIFYAMGWYRQAPGKERELVAAITSSGGSTYYADSVKGRFTISRDNAKNTVYLQMNSLKPEDTAVYYCNTLAYTYGSKFGYWGQGTQVTVSS” stands “low polyreactivity”; under “QVQLVESGGGLVQAGGSLRLSCAASGSTFIFYAMGWYRQAPGKERELVASITSRAASTYYADSVKGRFTISRDIAKNTVYLQMNSLKPEDTAVYYCAATFSYTLFWWSSFLLYDYWGQGTQVTVSS”, “low polyreactivity”. Under “QVQLVESGGGLVQAGGSLRLSCAASGSTFIGNAMGWYRQAPGKEREFVATISQNGGRTYYADSVKGRFTISRDNAKNTVYLQMNSLKPEDTAVYYCAADDWRWGYDYWGQGTQVTVSS” stands “high polyreactivity”; under “QVQLVESGGGLVQAGGSLRLSCAASGSTFIGYAMGWYRQAPGKERELVAAISRRGSRTYYADSVKGRFTISRDNAKNTVYLQINSLKPEDTAVYYCNRDYREYGYAYSGRYYWGQGTQVTVSS”, “high polyreactivity”. For “QVQLVESGGGLVQAGGSLRLSCAASGSTFIGYAMGWYRQAPGKERELVAAISRSDGSTYYADSVKGRFTISRDHAKNTVYLQMNSLKPEDTAVYYCNADYYRWYDYWGQGTQVTLSS”, the “polyreactivity (PSR sort gate)” value is “low polyreactivity”. Regarding “QVQLVESGGGLVQAGGSLRLSCAASGSTFIHNAMGWYRQAPGNERELVAAITSGGSTYYADSVKGRFTISRDNAMNTVYLQMNSLKPEDTAVYYCNRGSWRYSTMEYWGQGTLVTVSS”, the “polyreactivity (PSR sort gate)” value was “high polyreactivity”. Under “QVQLVESGGGLVQAGGSLRLSCAASGSTFIIYSMGWYRQAPGKERELVATISTRGTSTYYADSVKGRFTISRDNAKNTVYLQMNSLKPEDTAVYYCNARRRGYGNRYTFDYWGQGTQVTVSS” stands “high polyreactivity”. Under “QVQLVESGGGLVQAGGSLRLSCAASGSTFIKNAMGWYRQAPGKERELVAAINNSGSRTYYADSVKGRFTISRDNAKNTVYLQMNSLKPEDTAVYYCAAGRTYGMGYWGQGTQVTVSS” stands “high polyreactivity”; under “QVQLVESGGGLVQAGGSLRLSCAASGSTFILYAMGWYRQAPGKERELVAAISKRGGSTYYADSVKGRFTISRDNATHTVYFQLKSLKPEDTAVYYLNKKNPQDLTENGYWGQGTEVTVSS”, “high polyreactivity”; under “QVQLVESGGGLVQAGGSLRLSCAASGSTFINYAMGWYRQAPGKERELVAAYADSVKGRFTISRDNAKNTVYLQMNSLKPEDTAVYYCAARYVYPHQWTPYIRPYDYWGQGTQVTVSS”, “low polyreactivity”. On to “QVQLVESGGGLVQAGGSLRLSCAASGSTFIPYAMGWYRQAPGKERELVAGINGGDGSTYYADSVKGRFTISRDNAKNTVYLQMNSLKPEDTAVYYCAKKNPLVFTSGMDYWGQGTQVTVSS”, for which the “polyreactivity (PSR sort gate)” value is listed as “low polyreactivity”. Under “QVQLVESGGGLVQAGGSLRLSCAASGSTFISYAMGWYRQAPGKERELVAAISSSGGSTYYADSVKGRFTISRDNAKYTVYLQMNSLKPEDTAVYYCAAESVYYRSWRYYYWGQGTQVTVSS” stands “high polyreactivity”; under “QVQLVESGGGLVQAGGSLRLSCAASGSTFITYAMGRYRQAPGKERELVAAIRWSGGGTYYADSVKGRFTISRDNAKNTVYLQMNSLKPEDTAVYYCAADHFNYTTGRDYWGQGTQVTVSS”, “low polyreactivity”. Under “QVQLVESGGGLVQAGGSLRLSCAASGSTFITYAMGWYRQAPGKERELVAAIRVIGGRTYYADSVKGRFTISRDNAKNTVYLQMNSLKPEDTAVYYCAVTGRGWGYDYWGQGTQVTVSS” stands “high polyreactivity”; under “QVQLVESGGGLVQAGGSLRLSCAASGSTFITYGMGWYRQAPGKERELVARITLSGGSTYYADSVKGRFTISRDNAKNTVYLQINSLKPEDTAVYYCATDFGWQYYVLDGYYWGQGTQVTVSS”, “low polyreactivity”; under “QVQLVESGGGLVQAGGSLRLSCAASGSTFIVNAMGWYRQAPGKERELVAAITEDGDTTYYADSVKGRFTISRDHAKKTVYLQMNSLKPEDTAVYYCAARTYRGLADDYWGQGTQVTVSS”, “high polyreactivity”. On to “QVQLVESGGGLVQAGGSLRLSCAASGSTFIYNAMGWYRQAPGKERELVAAITDGSTKYADSVKGRFTISRDNAKNTVYLQMNSLKPEDTAVYYCNAYVWRWRYDSWGQGTQVTVSS”, for which the “polyreactivity (PSR sort gate)” value is “low polyreactivity”.

For “QVQLVESGGGLVQAGGSLRLSCAASGSTFKANAMGWYRQAPGKERELVASIRFSAGSTYYADSVKGRFTISRDNAKNTVYLQMNSLKPEDTAVYYCAAGRHVLKRRYDYWGQGTQVTVSS”, the “polyreactivity (PSR sort gate)” value is reported as “low polyreactivity”. Under “QVQLVESGGGLVQAGGSLRLSCAASGSTFKFNAMGWYRQAPGKERELVAAISRGGRTNYADSVKGRFTISRDNAKNTVYLQMNSLKPEDTAFYYCAADYSTLYKDDYWGQGTQVTVSS” stands “low polyreactivity”; under “QVQLVESGGGLVQAGGSLRLSCAASGSTFKGNAMGWYRQAPGKERELVAAINRSGTSTYYADSVKGRFTISRDNAKNTVYLQMNSLKPEDTAVYYCAKKYFGHRFDYWGQGTQVTVSS”, “high polyreactivity”. Regarding “QVQLVESGGGLVQAGGSLRLSCAASGSTFKIYAMGWYRPAPGKERELVAAITRGASTYADSVKGRFTISRDNAKNTVYLQMNSLKPEDTAVYYCAAYRRPSRSGDKPIGFDYWGQGTQVTVSS”, the “polyreactivity (PSR sort gate)” value is on record as “high polyreactivity”. Under “QVQLVESGGGLVQAGGSLRLSCAASGSTFKIYAMGWYRQAPGKERELVARITSGGSTNYADSVKGRFTISRDNAKNTVYLQMNSLKPEDTAVYYCAVPWYTRESGAYDYWGQGTQVTVSS” stands “high polyreactivity”; under “QVQLVESGGGLVQAGGSLRLSCAASGSTFKKYAMGWYRQAPGKERELVAAITWTGGSTYYADSVKGRFTISRDNAKNTVYFQMNSLKPEDTAVYYCAAYKTYAVKYYWGQGTQVTVSS”, “high polyreactivity”.

(Values after the nanobody polyreactivity screen of Harvey et al. (2022).)
